Results reported in PMC7589614.

Tests used:
protein A = protein A (Staphylococcus aureus, UniProt P02976 37-485); assay: porous silicon RIFTS (EOT) biosensor; apparent, mass-transfer limited; Hill fit R2 0.9177; Selection buffers listed (assay buffer and temperature not stated in material): AGR2 137 mM NaCl, 20 mM KCl, 10 mM Na2HPO4, 2 mM KH2PO4 pH 7.4; 6H7 50 mM K2HPO4
AGR2 = AGR2 (UniProt O95994 21-175); assay: porous silicon RIFTS (EOT) biosensor; apparent, mass-transfer limited; Hill fit R2 0.9951; Selection buffers listed (assay buffer and temperature not stated in material): AGR2 137 mM NaCl, 20 mM KCl, 10 mM Na2HPO4, 2 mM KH2PO4 pH 7.4; 6H7 50 mM K2HPO4
tyrosinase = target: T1, tyrosinase (Bacillus megaterium (printed …, UniProt B2ZB02 1-297)); assay: porous silicon RIFTS (EOT) biosensor; apparent, mass-transfer limited; Hill fit R2 0.9731; Selection buffers listed (assay buffer and temperature not stated in material): AGR2 137 mM NaCl, 20 mM KCl, 10 mM Na2HPO4, 2 mM KH2PO4 pH 7.4; 6H7 50 mM K2HPO4
T1 sequence: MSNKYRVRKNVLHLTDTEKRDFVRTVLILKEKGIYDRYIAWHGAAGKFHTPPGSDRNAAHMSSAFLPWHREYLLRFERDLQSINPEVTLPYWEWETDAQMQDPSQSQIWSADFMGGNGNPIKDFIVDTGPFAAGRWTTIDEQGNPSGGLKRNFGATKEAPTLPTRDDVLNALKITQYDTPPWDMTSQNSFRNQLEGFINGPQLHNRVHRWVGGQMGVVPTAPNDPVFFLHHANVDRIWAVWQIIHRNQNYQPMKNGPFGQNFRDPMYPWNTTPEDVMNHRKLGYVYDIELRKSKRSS

Sequence of protein A (P02976 37-485): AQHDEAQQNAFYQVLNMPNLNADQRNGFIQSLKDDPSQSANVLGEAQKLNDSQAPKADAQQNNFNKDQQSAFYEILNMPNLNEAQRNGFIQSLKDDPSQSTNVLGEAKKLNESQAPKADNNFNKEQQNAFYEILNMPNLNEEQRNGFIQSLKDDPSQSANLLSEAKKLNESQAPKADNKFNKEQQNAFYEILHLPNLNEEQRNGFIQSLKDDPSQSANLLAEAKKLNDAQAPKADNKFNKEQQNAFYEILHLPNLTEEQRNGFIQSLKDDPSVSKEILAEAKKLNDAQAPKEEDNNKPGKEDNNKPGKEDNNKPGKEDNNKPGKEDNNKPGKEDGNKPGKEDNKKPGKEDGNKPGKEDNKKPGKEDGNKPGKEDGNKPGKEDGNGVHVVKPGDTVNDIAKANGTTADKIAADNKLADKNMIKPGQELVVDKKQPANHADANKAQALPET
Sequence of AGR2 (O95994 21-175): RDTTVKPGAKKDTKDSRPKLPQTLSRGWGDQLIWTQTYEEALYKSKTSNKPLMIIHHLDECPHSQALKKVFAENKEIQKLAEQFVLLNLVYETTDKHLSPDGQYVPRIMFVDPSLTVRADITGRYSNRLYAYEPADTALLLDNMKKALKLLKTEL

B1: anti-protein A aptamer PA#2/8[S1-58] (ssDNA)
DNA: ATACCAGCTTATTCAATTAGCAACATGAGGGGGATAGAGGGGGTGGGTTCTCTCGGCT
modifications: 3'-amino-C6
Binder B1 has a Kd (protein A) of 14 ± 1 µM.

TCTCGGACGCGTGTGGTCGGGTGGGAGTTGTGGGGGGGGGTGGGAGGGTT (ssDNA, 5'-amino) [anti-AGR2 aptamer] showed a Kd (AGR2) of 21 ± 1 µM.

In the case of GCTATGGGTGGTCTGGTTGGGATTGGCCCCGGGAGCTGGC (ssDNA, 5'-amino) [anti-his tag aptamer 6H7], the Kd (tyrosinase) is reported as 31 ± 7 µM.
